Experiments:
[1] = target: T1, ankG in human brain homogenate (human, UniProt Q12955 1-4377, limits assumed); experiment: co-immunoprecipitation (ankG immunoprecipitate) from human AD hippocampus, Western blot
T1 construct: Endogenous protein in co-immunoprecipitation; also called ankG (human frontal cortex, hippocampus, AD hippocampus)
Text: (§1) FIG. 6: AnkG interacts directly with APP in the brain [0020] (a) AnkG and APP immunoprecipitates from human frontal cortex were immunoblotted with specific antibodies against ankG, APP and ankB. Immunoprecipitates with non-immune IgG served as a negative control. Note that APP co-immunoprecipitated with ankG and vice versa. Human brain homogenate (C) was used as positive control. (b) AnkG immunoprecipitates were obtained from arcAbeta (TG), non-transgenic (NTG) littermates and APP deficient (−/−) mouse brains. Note that APP, but not ankB, co-immunoprecipitated with ankG. Mouse brain homogenate (C) was used as positive control. (c) Primary rat hippocampal cultures were stained with antibodies against the C-terminal portion of APP (green) and with antibodies against ankG (red). Note the presence of both ankG and APP in the AIS. Scale bar=10 μm (upper panels) and Scale bar=30 μm (lower panels). […] AnkG binding to BSA-coated wells (2 mg/ml) served as negative control. Mean values (OD₄₅₀)±SEM are shown (n=6). (e) AnkG and APP immunoprecipitates from human AD hippocampus were immunoblotted with specific antibodies against APP and Caspr and L1. Immunoprecipitates with non-immune IgG served as a negative control. As already shown in (a) APP co-immunoprecipitated with ankG. Note the absence of Caspr and L1 from the immunoprecipitates. AD hippocampus homogenate (+) was used as positive control. […]

[2] = target: ankB in mouse brain homogenate (mouse, UniProt Q8C8R3 1-3898, limits assumed); experiment: co-immunoprecipitation (ankG immunoprecipitate) from mouse brains, Western blot
Text: as §1

T1 sequence (Q12955 whole entry): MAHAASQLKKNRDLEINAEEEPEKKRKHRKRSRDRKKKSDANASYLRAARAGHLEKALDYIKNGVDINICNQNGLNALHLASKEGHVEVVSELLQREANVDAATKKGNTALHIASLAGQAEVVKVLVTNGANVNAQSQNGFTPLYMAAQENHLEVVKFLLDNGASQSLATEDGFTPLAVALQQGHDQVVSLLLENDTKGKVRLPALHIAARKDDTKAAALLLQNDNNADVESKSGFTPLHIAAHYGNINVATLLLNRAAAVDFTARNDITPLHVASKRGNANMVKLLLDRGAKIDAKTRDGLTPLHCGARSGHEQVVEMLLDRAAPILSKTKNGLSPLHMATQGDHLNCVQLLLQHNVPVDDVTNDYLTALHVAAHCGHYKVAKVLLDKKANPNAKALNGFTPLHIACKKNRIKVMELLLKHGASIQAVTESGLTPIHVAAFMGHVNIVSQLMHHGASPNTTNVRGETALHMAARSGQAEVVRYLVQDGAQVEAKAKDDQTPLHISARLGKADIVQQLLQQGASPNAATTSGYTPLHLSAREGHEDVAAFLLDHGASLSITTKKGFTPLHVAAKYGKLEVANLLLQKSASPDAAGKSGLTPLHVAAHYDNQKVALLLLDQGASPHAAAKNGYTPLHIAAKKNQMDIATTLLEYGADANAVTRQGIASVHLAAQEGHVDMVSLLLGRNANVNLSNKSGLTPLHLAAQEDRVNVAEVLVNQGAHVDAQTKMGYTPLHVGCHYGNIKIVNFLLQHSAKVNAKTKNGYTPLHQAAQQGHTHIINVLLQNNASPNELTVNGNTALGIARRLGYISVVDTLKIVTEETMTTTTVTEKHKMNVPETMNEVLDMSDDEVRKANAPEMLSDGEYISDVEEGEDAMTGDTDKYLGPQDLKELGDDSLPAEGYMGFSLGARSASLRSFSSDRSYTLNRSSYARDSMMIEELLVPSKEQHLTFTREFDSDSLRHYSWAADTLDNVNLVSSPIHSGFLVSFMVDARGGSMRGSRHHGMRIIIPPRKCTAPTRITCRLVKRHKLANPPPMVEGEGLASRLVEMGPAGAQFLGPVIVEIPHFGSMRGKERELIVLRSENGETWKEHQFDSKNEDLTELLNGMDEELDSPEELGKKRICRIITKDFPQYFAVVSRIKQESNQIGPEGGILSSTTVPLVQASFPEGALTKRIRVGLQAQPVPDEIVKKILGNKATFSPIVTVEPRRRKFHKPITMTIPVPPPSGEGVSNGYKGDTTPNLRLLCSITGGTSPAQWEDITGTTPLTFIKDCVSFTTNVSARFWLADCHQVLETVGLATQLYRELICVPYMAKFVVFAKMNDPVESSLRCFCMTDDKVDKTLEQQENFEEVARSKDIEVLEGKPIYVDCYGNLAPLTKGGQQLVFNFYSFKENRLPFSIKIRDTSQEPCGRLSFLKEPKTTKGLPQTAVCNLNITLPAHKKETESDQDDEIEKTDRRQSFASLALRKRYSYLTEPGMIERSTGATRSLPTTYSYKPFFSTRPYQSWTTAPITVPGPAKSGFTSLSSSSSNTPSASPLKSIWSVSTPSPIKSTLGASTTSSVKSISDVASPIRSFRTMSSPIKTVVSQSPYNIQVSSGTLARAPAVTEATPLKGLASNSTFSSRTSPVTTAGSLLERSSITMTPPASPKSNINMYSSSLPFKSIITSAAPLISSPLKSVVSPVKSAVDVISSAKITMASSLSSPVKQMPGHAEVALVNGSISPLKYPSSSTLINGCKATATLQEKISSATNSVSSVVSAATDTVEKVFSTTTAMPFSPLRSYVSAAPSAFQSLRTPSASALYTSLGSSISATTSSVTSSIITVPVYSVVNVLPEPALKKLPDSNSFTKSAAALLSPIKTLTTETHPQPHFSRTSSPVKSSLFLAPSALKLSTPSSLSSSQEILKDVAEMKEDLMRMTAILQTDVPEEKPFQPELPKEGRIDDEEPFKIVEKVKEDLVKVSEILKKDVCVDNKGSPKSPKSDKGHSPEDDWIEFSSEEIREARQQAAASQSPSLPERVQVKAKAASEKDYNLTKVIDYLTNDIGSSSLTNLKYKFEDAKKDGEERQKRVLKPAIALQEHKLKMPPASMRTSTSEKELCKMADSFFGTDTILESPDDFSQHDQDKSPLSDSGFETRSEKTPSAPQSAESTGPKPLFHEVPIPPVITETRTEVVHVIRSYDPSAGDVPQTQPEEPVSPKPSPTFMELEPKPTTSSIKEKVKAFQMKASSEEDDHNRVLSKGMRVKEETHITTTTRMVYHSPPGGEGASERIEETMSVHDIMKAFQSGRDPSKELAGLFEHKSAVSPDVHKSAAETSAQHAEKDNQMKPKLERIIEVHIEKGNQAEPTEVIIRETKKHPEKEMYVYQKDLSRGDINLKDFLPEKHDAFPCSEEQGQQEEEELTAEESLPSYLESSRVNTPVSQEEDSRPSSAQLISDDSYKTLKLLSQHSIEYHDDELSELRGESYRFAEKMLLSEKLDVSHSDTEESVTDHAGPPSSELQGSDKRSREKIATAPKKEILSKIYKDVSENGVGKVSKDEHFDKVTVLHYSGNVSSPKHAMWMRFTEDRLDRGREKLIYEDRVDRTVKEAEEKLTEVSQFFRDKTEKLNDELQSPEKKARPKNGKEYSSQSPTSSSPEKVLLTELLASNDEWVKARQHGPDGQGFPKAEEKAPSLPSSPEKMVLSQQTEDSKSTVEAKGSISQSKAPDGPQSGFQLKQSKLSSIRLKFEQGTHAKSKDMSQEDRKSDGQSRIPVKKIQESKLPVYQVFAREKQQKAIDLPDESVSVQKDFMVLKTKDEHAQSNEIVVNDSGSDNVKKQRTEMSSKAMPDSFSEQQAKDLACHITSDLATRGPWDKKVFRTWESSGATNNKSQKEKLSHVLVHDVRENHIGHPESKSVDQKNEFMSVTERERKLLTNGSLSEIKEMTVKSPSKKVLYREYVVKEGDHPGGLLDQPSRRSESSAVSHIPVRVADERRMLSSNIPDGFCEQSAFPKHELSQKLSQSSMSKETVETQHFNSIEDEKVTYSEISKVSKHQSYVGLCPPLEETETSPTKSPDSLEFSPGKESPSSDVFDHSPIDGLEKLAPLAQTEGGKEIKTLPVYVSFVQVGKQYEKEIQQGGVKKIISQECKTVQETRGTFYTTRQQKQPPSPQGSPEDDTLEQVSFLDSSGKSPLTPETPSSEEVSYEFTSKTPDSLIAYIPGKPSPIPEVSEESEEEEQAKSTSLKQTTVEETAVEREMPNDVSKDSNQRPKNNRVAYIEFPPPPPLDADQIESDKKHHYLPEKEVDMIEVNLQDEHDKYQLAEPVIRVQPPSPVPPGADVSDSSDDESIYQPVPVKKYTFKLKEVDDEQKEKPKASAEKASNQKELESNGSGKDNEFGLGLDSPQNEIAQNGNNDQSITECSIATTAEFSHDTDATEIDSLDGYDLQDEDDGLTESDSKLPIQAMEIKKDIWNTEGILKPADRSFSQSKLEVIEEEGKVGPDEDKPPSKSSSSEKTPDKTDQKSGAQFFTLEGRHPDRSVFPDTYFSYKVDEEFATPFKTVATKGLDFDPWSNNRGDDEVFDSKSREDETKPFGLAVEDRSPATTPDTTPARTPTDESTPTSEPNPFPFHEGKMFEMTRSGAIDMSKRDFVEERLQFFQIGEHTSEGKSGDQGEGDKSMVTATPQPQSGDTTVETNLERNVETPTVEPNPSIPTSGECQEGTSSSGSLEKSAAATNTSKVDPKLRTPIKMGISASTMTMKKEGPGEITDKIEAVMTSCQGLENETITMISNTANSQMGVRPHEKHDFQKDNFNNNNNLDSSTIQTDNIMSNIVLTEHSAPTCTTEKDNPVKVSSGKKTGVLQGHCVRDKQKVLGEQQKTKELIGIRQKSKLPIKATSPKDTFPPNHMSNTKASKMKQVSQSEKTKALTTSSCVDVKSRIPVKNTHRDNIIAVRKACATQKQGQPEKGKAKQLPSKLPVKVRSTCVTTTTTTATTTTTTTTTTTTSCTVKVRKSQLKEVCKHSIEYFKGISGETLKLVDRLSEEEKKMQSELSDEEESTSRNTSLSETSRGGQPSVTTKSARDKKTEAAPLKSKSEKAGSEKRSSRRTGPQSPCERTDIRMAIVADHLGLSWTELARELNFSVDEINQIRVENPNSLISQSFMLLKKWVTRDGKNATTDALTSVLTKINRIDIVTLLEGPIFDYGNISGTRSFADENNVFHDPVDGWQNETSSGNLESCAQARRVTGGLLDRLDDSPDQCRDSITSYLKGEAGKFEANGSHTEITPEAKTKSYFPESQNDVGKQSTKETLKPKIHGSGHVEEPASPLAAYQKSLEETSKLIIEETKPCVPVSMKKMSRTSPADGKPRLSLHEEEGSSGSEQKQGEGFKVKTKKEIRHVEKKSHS

Binder	binding result [1]	binding result [2]
Caspr in human AD hippocampus homogenate (other, UniProt P78357 20-1384, looked up) WGYYGCDEELVGPLYARSLGASSYYSLLTAPRFARLHGISGWSPRIGDPNPWLQIDLMKKHRIRAVATQGSFNSWDWVTRYMLLYGDRVDSWTPFYQRGHNSTFFGNVNESAVVRHDLHFHFTARYIRIVPLAWNPRGKIGLRLGLYGCPYKADILYFDGDDAISYRFPRGVSRSLWDVFAFSFKTEEKDGLLLHAEGAQGDYVTLELEGAHLLLHMSLGSSPIQPRPGHTTVSAGGVLNDQHWHYVRVDRFGRDVNFTLDGYVQRFILNGDFERLNLDTEMFIGGLVGAARKNLAYRHNFRGCIENVIFNRVNIADLAVRRHSRITFEGKVAFRCLDPVPHPINFGGPHNFVQVPGFPRRGRLAVSFRFRTWDLTGLLLFSRLGDGLGHVELTLSEGQVNVSIAQSGRKKLQFAAGYRLNDGFWHEVNFVAQENHAVISIDDVEGAEVRVSYPLLIRTGTSYFFGGCPKPASRWDCHSNQTAFHGCMELLKVDGQLVNLTLVEGRRLGFYAEVLFDTCGITDRCSPNMCEHDGRCYQSWDDFICYCELTGYKGETCHTPLYKESCEAYRLSGKTSGNFTIDPDGSGPLKPFVVYCDIRENRAWTVVRHDRLWTTRVTGSSMERPFLGAIQYWNASWEEVSALANASQHCEQWIEFSCYNSRLLNTAGGYPYSFWIGRNEEQHFYWGGSQPGIQRCACGLDRSCVDPALYCNCDADQPQWRTDKGLLTFVDHLPVTQVVIGDTNRSTSEAQFFLRPLRCYGDRNSWNTISFHTGAALRFPPIRANHSLDVSFYFRTSAPSGVFLENMGGPYCQWRRPYVRVELNTSRDVVFAFDVGNGDENLTVHSDDFEFNDDEWHLVRAEINVKQARLRVDHRPWVLRPMPLQTYIWMEYDQPLYVGSAELKRRPFVGCLRAMRLNGVTLNLEGRANASEGTSPNCTGHCAHPRLPCFHGGRCVERYSYYTCDCDLTAFDGPYCNHDIGGFFEPGTWMRYNLQSALRSAAREFSHMLSRPVPGYEPGYIPGYDTPGYVPGYHGPGYRLPDYPRPGRPVPGYRGPVYNVTGEEVSFSFSTSSAPAVLLYVSSFVRDYMAVLIKDDGTLQLRYQLGTSPYVYQLTTRPVTDGQPHSINITRVYRNLFIQVDYFPLTEQKFSLLVDSQLDSPKALYLGRVMETGVIDPEIQRYNTPGFSGCLSGVRFNNVAPLKTHFRTPRPMTAELAEALRVQGELSESNCGAMPRLVSEVPPELDPWYLPPDFPYYHDEGWVAILLGFLVAFLLLGLVGMLVLFYLQNHRYKGSYHTNEPKAAHEYHPGSKPPLPTSGPAQVPTPTAAPNQAPASAPAPAPTPAPAPGPRDQNLPQILEESRSE	no binding	
ankG in mouse brain homogenate (other, UniProt G5E8K5 1-1961, looked up, also called ankG (arcAbeta, non-transgenic and APP deficient mouse brains)) MSEEPKEKPAKPAHRKRKGKKSDANASYLRAARAGHLEKALDYIKNGVDVNICNQNGLNALHLASKEGHVEVVSELLQREANVDAATKKGNTALHIASLAGQAEVVKVLVTNGANVNAQSQNGFTPLYMAAQENHLEVVRFLLDNGASQSLATEDGFTPLAVALQQGHDQVVSLLLENDTKGKVRLPALHIAARKDDTKAAALLLQNDTNADVESKSGFTPLHIAAHYGNINVATLLLNRAAAVDFTARNDITPLHVASKRGNANMVKLLLDRGAKIDAKTRDGLTPLHCGARSGHEQVVEMLLDRSAPILSKTKNGLSPLHMATQGDHLNCVQLLLQHNVPVDDVTNDYLTALHVAAHCGHYKVAKVLLDKKASPNAKALNGFTPLHIACKKNRIRVMELLLKHGASIQAVTESGLTPIHVAAFMGHVNIVSQLMHHGASPNTTNVRGETALHMAARSGQAEVVRYLVQDGAQVEAKAKDDQTPLHISARLGKADIVQQLLQQGASPNAATTSGYTPLHLAAREGHEDVAAFLLDHGASLSITTKKGFTPLHVAAKYGKLEVASLLLQKSASPDAAGKSGLTPLHVAAHYDNQKVALLLLDQGASPHAAAKNGYTPLHIAAKKNQMDIATSLLEYGADANAVTRQGIASVHLAAQEGHVDMVSLLLSRNANVNLSNKSGLTPLHLAAQEDRVNVAEVLVNQGAHVDAQTKMGYTPLHVGCHYGNIKIVNFLLQHSAKVNAKTKNGYTALHQAAQQGHTHIINVLLQNNASPNELTVNGNTALAIARRLGYISVVDTLKVVTEEIMTTTTITEKHKMNVPETMNEVLDMSDDEVRKASAPEKLSDGEYISDGEEGDKCTWFKIPKVQEVLVKSEDAITGDTDKYLGPQDLKELGDDSLPAEGYVGFSLGARSASLRSFSSDRSYTLNRSSYARDSMMIEELLVPSKEQHLTFTREFDSDSLRHYSWAADTLDNVNLVSSPVHSGFLVSFMVDARGGSMRGSRHHGMRIIIPPRKCTAPTRITCRLVKRHKLANPPPMVEGEGLASRLVEMGPAGAQFLGPVIVEIPHFGSMRGKERELIVLRSENGETWKEHQFDSKNEDLAELLNGMDEELDSPEELGTKRICRIITKDFPQYFAVVSRIKQESNQIGPEGGILSSTTVPLVQASFPEGALTKRIRVGLQAQPVPEETVKKILGNKATFSPIVTVEPRRRKFHKPITMTIPVPPPSGEGVSNGYKGDATPNLRLLCSITGGTSPAQWEDITGTTPLTFIKDCVSFTTNVSARFWLADCHQVLETVGLASQLYRELICVPYMAKFVVFAKTNDPVESSLRCFCMTDDRVDKTLEQQENFEEVARSKDIEVLEGKPIYVDCYGNLAPLTKGGQQLVFNFYSFKENRLPFSIKIRDTSQEPCGRLSFLKEPKTTKGLPQTAVCNLNITLPAHKKAEKADRRQSFASLALRKRYSYLTEPSMSPQSPCERTDIRMAIVADHLGLSWTELARELNFSVDEINQIRVENPNSLISQSFMLLKKWVTRDGKNATTDALTSVLTKINRIDIVTLLEGPIFDYGNISGTRSFADENNVFHDPVDGHPSFQVELETPMGLYCTPPNPFQQDDHFSDISSIESPFRTPSRLSDGLVPSQGNIEHPTGGPPVVTAEDTSLEDSKMDDSVTVTDPADPLDVDESQLKDLCQSECAQCWASVPGIPNDGRQAEPLRPQTRKVGMSSEQQEKGKSGPDEEVTEDKVKSLFEDIQLEEVEAEEMTEDQGQAMLNRVQRAELAMSSLAGWQNETPSGSLESPAQARRLTGGLLDRLDDSSDQARDSITSYLTGEPGKIEANGNHTAEVIPEAKAKPYFPESQNDIGKQSIKENLKPKTHGCGRTEEPVSPLTAYQKSLEETSKLVIEDAPKPCVPVGMKKMTRTTADGKARLNLQEEEGSTRSEPKQGEGYKVKTKKEIRNVEKKTH		no binding

Source: patent publication US20140044644A1 (UNIVERSITY OF ZURICH, published 2014)
